72 sequences from the supplement of paper PMC6755084 can be followed below.

In the series the test system is F1*sub RNA substrate (template-directed ligation). The series is described as follows: fraction ligated after 30 min (ligated reads / total reads); higher = more ligase activity; sequences stand for … in GAGACCGCAACTGAAAAGTTGT…AGTTCTGCACGTAGAAGCAAAAGGC
To be noted: 42 °C. On the procedure: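 Chip-synthesised pool of F1* ligase ribozyme variants (all single and double substitutions, single, double and triple deletions in the catalytic core and GAA bulge, plus designed variants) was transcribed with T7 and reacted as a pool with excess substrate F1*sub for 30 min at 42 C in 50 mM EPPS pH 8.5, 25 mM MgCl2. Ligated and unligated bands were separated by PAGE, barcoded by RT and deep sequenced; fraction ligated = ligated reads / total reads per variant, relative activity = FL / FL of wild type (0.826). Sequences are the DNA template of the ribozyme.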
On to “TATCACTTGCGTAAGACCTTTGGATGGGTTG [3d1673]”, for which the fraction ligated came to 0.81.

Take “TATCACTTGTCGTAAGACACTGGAGGGTTGA [3d2234]”: the fraction ligated is 0.00473.

“TATCACTTTCGTAAGACCTTTGGATGGGTTA [3d1552]” had a fraction ligated of 0.623.

For the sequence TTCACTTGTCGTAAACACTTGGATGGGTTGA [3d445], the fraction ligated was 0.0492.

Sequence “TATCACTTGTCGTAAAACTTTGGATGGGTTA [3d2065]” yielded a fraction ligated of 0.764.

“TATCACTTTCGTAGAACTTTGGATGGGTTGA [3d1509]” registered a fraction ligated of 0.875.

TATATTGTCGTAAGACACTTTGGAGGGTTGA [3d773] yielded a fraction ligated of 0.0159.

On to “TATCACTTTCGTAAGACACTTTGTGGGTTGA [3d1569]”, for which the fraction ligated amounted to 0.0262.

“TATCACTTTCGAAGAACTTTGGATGGGTTGA [3d1496]” displayed a fraction ligated of 0.843.

As to TTCACTGTCTAAGACACTTTGGATGGGTTGA [3d340], the fraction ligated came to 0.774.

With TATATTGTCTAAGACACTTTGGATGGGTTGA [3d762], the fraction ligated was determined as 0.27.

For the sequence “TATCACTGTGTAAGACACTTTGGAGGGTTGA [3d1354]”, the fraction ligated was 0.0274.

“TATCACTTGTTAAGACACTTGGATGGGTTGA [3d1711]”: the fraction ligated amounted to 0.784.

For the sequence ATCACTTGTCGTAAGAACTTGGATGGGTTGA [3d232], the fraction ligated was 0.751.

Sequence “TATCATTGTCTAAGACATTTGGATGGGTTGA [3d1193]” yielded a fraction ligated of 0.778.

Consider “TATCATTGTCGTAAACACTTTGGATGGGTTG [3d1236]”, for which the fraction ligated was determined as 0.809.

On to “TATCACTTGCTAAGACACTTTGGATGGGTTA [3d1611]”, for which the fraction ligated worked out at 0.773.

In turn, TATACTTGTCGTAAGACACTTTGGAGGTTGA [3d942] yielded a fraction ligated of 0.00359.

“TATCACTGTCGAAGACACTTTGGATGGGTTA [3d1383]”: the fraction ligated was determined as 0.75.

“TATCCTTGTCGTAAGCATTTGGATGGGTTGA [3d1067]” showed a fraction ligated of 0.763.

In the case of TTCACTTTCGTAAGACACTTTGGATGGTTGA [3d368], the fraction ligated is 0.0816.

For the sequence “TATCACTTGTCGTAAGACACTTTGTGGTTGA [3d2261]”, the fraction ligated turned out to be 0.0088.

Consider “TATCACTTGTCTAAGACACTTGATGGGTTGA [3d1879]”, for which the fraction ligated stood at 0.708.

With “TATCACTTGTCGTAAGCACTTGGATGGTTGA [3d2132]”, the fraction ligated was 0.108.

On to TATCACTTTCGTAAGACACTTTGGATGGGTTGA [1d8], for which the fraction ligated is 0.815.

Regarding TATACTGTCGTAGACACTTTGGATGGGTTGA [3d783], the fraction ligated turned out to be 0.757.

For the sequence “TATCACTTGTCGAGACACTTTGATGGGTTGA [3d1909]”, the fraction ligated amounted to 0.74.

In turn, “TATCACTTGTCGTAAACACTTGGAGGGTTGA [3d2084]” yielded a fraction ligated of 0.0636.

In the case of ATACTTGTCGTAAGACACTTTGGATGGGTTG [3d66], the fraction ligated is 0.244.

For TATCCTGTCGTAAGACACTTTGATGGGTTGA [3d962], the fraction ligated amounted to 0.754.

Take TATACTTGTCGAAGACACTTGGATGGGTTGA [3d863]: the fraction ligated is 0.743.

In turn, TATCTTGTCGTAAGACCTTTGGATGGGTTGA [3d749] displayed a fraction ligated of 0.757.

TATCCTGTCGAAGACACTTTGGATGGGTTGA [3d954] registered a fraction ligated of 0.786.

In turn, TACACTTGTCGTAAGACCTTTGATGGGTTGA [3d701] gave a fraction ligated of 0.0781.

“TATCACTGTCGTAAGACACTTTGTGGGTTGA [3d1448]”: the fraction ligated was 0.0145.

Take “TATCACTTGTCGTAAGACATTTGGTGGGTTG [3d2223]”: the fraction ligated was 0.0154.

For the sequence TAACTTGTCGTAAGACCTTTGGATGGGTTGA [3d519], the fraction ligated was 0.196.

The sequence “TATCACTTGTCGTAAACACTTTGGAGGGTTGA [2d240]” came in with a fraction ligated of 0.0926.

Sequence “TATCACTTGCTAAGACACTTTGATGGGTTGA [3d1607]” registered a fraction ligated of 0.738.

For “TATCACTTTCGTAGACACTTTGGATGGGTTGA [2d150]”, the fraction ligated was 0.802.

The sequence TCACTTTCGTAAGACACTTTGGATGGGTTGA [3d6] came in with a fraction ligated of 0.145.

In turn, “TATCCTTGTGAAGACACTTTGGATGGGTTGA [3d1001]” registered a fraction ligated of 0.792.

Consider TACACTTGTCGTAGAACTTTGGATGGGTTGA [3d662], for which the fraction ligated is 0.145.

TACACTTTCGTAAACACTTTGGATGGGTTGA [3d589] gave a fraction ligated of 0.0248.

Sequence TTCACTTGTCGTAAGACACTGGATGGGTTGA [3d484] returned a fraction ligated of 0.705.

“TATCACTTGTCGTAAGAACTTTGGATGGTTGA [2d259]”: the fraction ligated turned out to be 0.139.

As for TATACTTGTCGTAAGACCTTTGGAGGGTTGA [3d914], the fraction ligated was 0.0249.

“TATCACTTGTCGTAAGAACTTTGGATGGTTG [3d2180]” returned a fraction ligated of 0.0734.

With TATCTTGTCTAAGACACTTTGGATGGGTTGA [3d743], the fraction ligated turned out to be 0.742.

For “TATCATTGTGTAAGACACTTTGGATGGTTGA [3d1184]”, the fraction ligated came to 0.0387.

With “TATCACTTGTGTAAGACACTTGGATGGGTTA [3d1791]”, the fraction ligated stood at 0.349.

“TATCACTTGTCGTAAGAACTTGGAGGGTTGA [3d2162]” returned a fraction ligated of 0.0364.

Sequence ATCATTGTCTAAGACACTTTGGATGGGTTGA [3d90] came in with a fraction ligated of 0.663.

The sequence TTCACTTGCGTAGACACTTTGGATGGGTTGA [3d374] yielded a fraction ligated of 0.736.

In turn, “TATCCTTGTCGTAAGACATTTGGATGGTTGA [3d1094]” had a fraction ligated of 0.0378.

“TATCACTTGTTAAGACACTTTGGATGGTTGA [3d1715]” registered a fraction ligated of 0.348.

In turn, “TATCACTTTCGTAAACACTTTGATGGGTTGA [3d1523]” gave a fraction ligated of 0.768.

Regarding “TATCACTTGTCTAAGACATTTGGTGGGTTGA [3d1873]”, the fraction ligated turned out to be 0.0508.

Take TATACTTGTCTAAGACACTTTGGTGGGTTGA [3d852]: the fraction ligated worked out at 0.0368.

Take ATCACTTGCGAAGACACTTTGGATGGGTTGA [3d142]: the fraction ligated came out at 0.743.

TACACTTTCGTAGACACTTTGGATGGGTTGA [3d588] came in with a fraction ligated of 0.0222.

The sequence “TATCACGTCGTAAGACACTTTGGATGGGTTA [3d1309]” had a fraction ligated of 0.734.

In the case of TATACTTGTCGTAAGACACTTGGATGGGTTA [3d930], the fraction ligated is 0.0948.

Turning to “GGTTATCACTTGTCGTAAGACACTTTGGATGTGA [s37]”, the fraction ligated was found to be 0.

“TATCACTTTCGAAGACACTTTGGATGGGTTG [3d1505]” gave a fraction ligated of 0.792.

For TTCACTTGTCGTAAGACACTTGGATGGGTTGA [2d40], the fraction ligated is 0.656.

Take TATACTTGTCGTAAAACTTTGGATGGGTTGA [3d883]: the fraction ligated came to 0.799.

The sequence TACACTTGCGTAAGACACTTTGATGGGTTGA [3d611] came in with a fraction ligated of 0.0347.

“TATCACTGTCGTAAGACACTTTGGATGGGTT [3d1462]” gave a fraction ligated of 0.365.

Sequence TACATTGTCGTAAGACACTTTGATGGGTTGA [3d560] had a fraction ligated of 0.232.

With “TATCACTGTCGTAGACACTTTGGATGGGTTGA [2d134]”, the fraction ligated is 0.861.

TATCCTTTCGTAAGACATTTGGATGGGTTGA [3d976] came in with a fraction ligated of 0.787.
